Results published in doi:10.1101/2025.09.13.676064, “Structural Hijacking of FcRn by Human Astrovirus Spikes Reveals Conserved Epitopes for Broad-Spectrum Antivirals” (bioRxiv, 2025).

B1: HAstV-2 capsid spike domain (residues 428-647) (domain or fragment)
chain: SGELRVLLTVGSIMSPNSADRQVWLNKTLTAPGTNSNDNLVKIAHDLGHYLIMQGFMHIKTVEWYTPDFQPSRDPTPIAGMSVMVNITKKADVYFMKQFKNSYTNNRHQITSIFLIKPLADFKVQCYMSYFKRESHDNDGVANLTVRSMTSPETIRFQVGEWYLLTSTTLKENNLPEGWVWDRVELKSDTPYYADQALTYFITPPPVDSQILFEGNTTLP
modifications: biotin (biotinylated spike; BirA co-transfected)
notes: Human astrovirus serotype 2 capsid protein (ORF2-encoded precursor), spike domain, residues 428-647 of Q82446.1; Codon-optimised, in pcDNA3.1; also called HAstV2 spike; serotype 2 spike; source: Expi293F cells, co-transfected with BirA plasmid, purified from the supernatant (Ni-IMAC, SEC Superdex 200); not shown: AviTag, C-terminal, kept
B2: HAstV-8 capsid spike domain (residues 424-645) (domain or fragment)
chain: SIPEPGEQFRVLLTVGPPMAPNTANSQNWVNKTIVPPENQYTVKIGIDLEHYTTMQGFTPVESVSWYTADFQPSDEPSPIPGLYARVNNTKKADVYGVQQFKSSHTNNRHQITSVFLVRVTTSFQVINYTSYFIRGAESGSNVSNLKIRDQTYHTPLQFTQGKWYLLTSTVMHDGPTSSGWVWMNQELTNNIAYRVDPGMMYLITPPPAASQLYFELHTVLP
modifications: biotin (biotinylated spike; BirA co-transfected)
notes: Human astrovirus serotype 8 capsid protein (ORF2-encoded precursor), spike domain, residues 424-645 of Q9IFX1; Codon-optimised, in pcDNA3.1; also called HAstV8 spike; serotype 8 spike; source: Expi293F cells, co-transfected with BirA plasmid, purified from the supernatant (Ni-IMAC, SEC Superdex 200); not shown: AviTag, C-terminal, kept

Columns and labels:
[1] = target: T1, untagged recombinant human FcRn extracellular domain (neonatal Fc receptor; α-chain with β2-microglobulin) (human, UniProt P55899 24-297; P61769 21-119); experiment: BLI; biotinylated spike immobilised on streptavidin (SA) biosensors; FcRn in solution, 2-fold dilutions 1,000 to 31.25 nM; 23°C; pH 6.0; 1:1 binding model; Octet Red; conditions: both partners purified
T1 construct: Human FcRn α-chain (heavy chain), residues 24-297 of UniProt P55899; Human β2-microglobulin, residues 21-119 of UniProt P61769; Untagged; both chains cloned into separate phCMV3 vectors; also called human FcRn ectodomain; FcRn heterodimer; source: Expi293F cells, co-transfected (1:1), purified from the supernatant (human IgG column, SEC Superdex 200 Increase)

[2] = target: T1, untagged recombinant human FcRn …; experiment: BLI; biotinylated spike immobilised on streptavidin (SA) biosensors; FcRn in solution, 2-fold dilutions 1,000 to 31.25 nM; 23°C; pH 7.5; 1:1 binding model; Octet Red; conditions: both partners purified

T1 sequence (P55899 24-297, chain 1 of 2): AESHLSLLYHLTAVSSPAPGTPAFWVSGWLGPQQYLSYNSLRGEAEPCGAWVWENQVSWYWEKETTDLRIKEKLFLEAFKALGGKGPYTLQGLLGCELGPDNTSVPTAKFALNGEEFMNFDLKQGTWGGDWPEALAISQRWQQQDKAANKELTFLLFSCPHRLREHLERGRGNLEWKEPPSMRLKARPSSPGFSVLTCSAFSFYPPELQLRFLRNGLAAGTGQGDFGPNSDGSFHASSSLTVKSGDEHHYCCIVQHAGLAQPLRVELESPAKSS
T1 sequence (P61769 21-119, chain 2 of 2): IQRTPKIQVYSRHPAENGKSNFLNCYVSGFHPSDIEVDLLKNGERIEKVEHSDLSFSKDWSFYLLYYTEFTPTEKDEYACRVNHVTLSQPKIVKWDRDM

Row | Binder | Kd [1] [nM] | Kd [2] [nM]
1 | B1 | 42 | 898
2 | B2 | 60 | 458
